Reference: PMC10180619 (Nature Communications, 2023)

Legend:
[1] = target: SARS-CoV-2 Delta receptor binding domain (SARS-CoV-2, Delta variant (B.1.617.2), L452R | T478K, biotin (EZ-Link Sulfo-NHS-LC-Biotin, average of four biotins per RBD molecule)); experiment: BLI; conditions: both partners purified
[2] = target: SARS-CoV-2 Beta receptor binding domain (SARS-CoV-2, Beta variant (B.1.351), K417N | E484K | N501Y, biotin (EZ-Link Sulfo-NHS-LC-Biotin, average of four biotins per RBD molecule)); experiment: BLI; conditions: both partners purified

B1: ADI-81654 (Fab, V domains shown)
VH: QVQLKQSGPTLVKPTQTLTLTCTFSGFSLSTYGVGVGWIRQPPGKALEWLALIYYDDDKRYSPSLKSRLTITKDTSQNQVVLTMTNMDPVDTATYYCARHTIATIFDFDSWGQGTLVTVSS
VL: QSVLTQPASVSGSPGQSITISCTGTSSDVGGHNYVSWYQQHPGKAPKLMIYEVSNRPSGVSNRFSGSKSGNTASLTISGLQAEDEADYSCSSYASSTSPVVFGGVTKLTVL
Kd [1]: 1.83 nM
Kd [2]: 2.56 nM
